Results taken from patent publication US20230212554A1.
Numbering of substitutions follows the chain as printed.

B1: NP22 (antibody, V domains shown)
VH: EVQLVESGGGLVQPGGSLRLSCAASGFTISDWSIHWVRQAPGKGLEWVAGIWPYWGSTSYADSVKGRFTISADTSKNTAYLQMNSLRAEDTAVYYCARGFYSWFDYWGQGTLVTVSS
VL: DIQMTQSPSSLSASVGDRVTITCRASQDVFSWVAWYQQKPGKAPKLLISSASSLYSGVPSRFSGSGSGTDFTLTISSLQPEDFATYYCQQSWDYPITFGQGTKVEIKR
B2: NP25 (antibody, V domains shown)
VH: EVQLVESGGGLVQPGGSLRLSCAASGFTIGGGFIHWVRQAPGKGLEWVASIWPYWGFTYYADSVKGRFTISADTSKNTAYLQMNSLRAEDTAVYYCARGSYGYSDYWGQGTLVTVSS
VL: B1 VL with S26G, F30S, W32G, S50W, A51T, S53F, S91Y, W92Y
B3: NP21 (antibody, V domains shown)
VH: EVQLVESGGGLVQPGGSLRLSCAASGFTINGYGIHWVRQAPGKGLEWVAGIWPYGGSTFYADSVKGRFTISADTSKNTAYLQMNSLRAEDTAVYYCARFYNNHGGIMDYWGQGTLVTVSS
VL: DIQMTQSPSSLSASVGDRVTITCRASQDVYFYVAWYQQKPGKAPKLLIYGSRWLYSGVPSRFSGSGSGTDFTLTISSLQPEDFATYYCQQYSNFPVTFGQGTKVEIKR
B4: NP19 (antibody, V domains shown)
VH: EVQLVESGGGLVQPGGSLRLSCAASGFTISSWGIHWVRQAPGKGLEWVAGIGPFWGYTSYADSVKGRFTISADTSKNTAYLQMNSLRAEDTAVYYCARFGVDNYGYMDYWGQGTLVTVSS
VL: B3 VL with Y30S, F31G, Y32W, Y49S, G50W, R52T, W53G, S92F
B5: NP16 (antibody, V domains shown)
VH: EVQLVESGGGLVQPGGSLRLSCAASGFTIGNSGIHWVRQAPGKGLEWVAWIGPYWGFTSYADSVKGRFTISADTSKNTAYLQMNSLRAEDTAVYYCARFGNHWHLFMDYWGQGTLVTVSS
VL: B1 VL with F30G, W32Y, S50W, A51T, S52T, S53G, S91Y, W92F, D93S, I96V
B6: NP15 (antibody, V domains shown)
VH: EVQLVESGGGLVQPGGSLRLSCAASGFTISNWYIHWVRQAPGKGLEWVAGIGPYGGSTYYADSVKGRFTISADTSKNTAYLQMNSLRAEDTAVYYCARFHWDHLHGMDYWGQGTLVTVSS
VL: B1 VL with F30D, S31N, W32N, S50Y, A51S, S52T, S53G, S91Y, D93N
B7: NP3 (antibody, V domains shown)
VH: B3 VH with N30S, G31N, Y54F, S57F, F59S, Y100H, N101W, H103D, G104H, I106Y
VL: B3 VL with Y30G, F31W, G50S, S51T, R52T, W53G, S92Y, F94Y, V96I
B8: NP18 (antibody, V domains shown)
VH: EVQLVESGGGLVQPGGSLRLSCAASGFTISGGGIHWVRQAPGKGLEWVASIWPSWGSTSYADSVKGRFTISADTSKNTAYLQMNSLRAEDTAVYYCARFHNGGFLVMDYWGQGTLVTVSS
VL: B3 VL with P8S, Y30G, F31Y, S51P, W53F, F94W, V96I
B9: NP20 (antibody, V domains shown)
VH: EVQLVESGGGLVQPGGSLRLSCAASGFTINGYSIHWVRQAPGKGLEWVASIGPYGGFTYYADSVKGRFTISADTSKNTAYLQMNSLRAEDTAVYYCAGFGFYYWGQGTLVTVSS
VL: B3 VL with Y30G, F31Y, Y32G, Y49S, S51A, R52S, W53G, N93S, V96L
B10: NP2 (antibody, V domains shown)
VH: B8 VH with S30G, S50G, S54Y, S57Y, S59F, H100W, N101H, G103N, F104L, L105D
VL: B3 VL with F31G, S51A, R52A, W53G, V96L
B11: NP24 (antibody, V domains shown)
VH: B1 VH with S30D, S33Y, W52G, W55G, S57F, S59Y, F100Y, S102G, W103S
VL: B1 VL with F30G, W32S, S49F, S50Y, A51T, S91G, Y94S, I96V
B12: NP6 (antibody, V domains shown)
VH: EVQLVESGGGLVQPGGSLRLSCAASGFTINDGSIHWVRQAPGKGLEWVAGIGPFGGFTYYADSVKGRFTISADTSKNTAYLQMNSLRAEDTAVYYCARSGYSGSFDYWGQGTLVTVSS
VL: B3 VL with Y32G, S51T, R52S, W53Y, Y91F, F94W, V96I
B13: NP5 (antibody, V domains shown)
VH: EVQLVESGGGLVQPGGSLRLSCAASGFTISNGSIHWVRQAPGKGLEWVAGIWPSGGSTSYADSVKGRFTISADTINNSAYLQMNSLRAEDTAVYYCARWNYWGQGTLVTVSS
VL: B3 VL with Y30G, F31W, Y32S, Y91G, S92Y, F94G, V96L
B14: NP7 (antibody, V domains shown)
VH: EVQLVESGGGLVQPGGSLRLSCAASGFTISNGGIHWVRQAPGKGLEWVAGIGPYGGFTSYADSVKGRFTISADTSKNTAYLQMNSLRAEDTAVYYCARFYSNYYGYHGVMDYWGQGTLVTVSS
VL: B1 VL with S31G, S50Y, A51S, S52A, S91Y, W92F, D93N, I96L
B15: NP17 (antibody, V domains shown)
VH: B3 VH with N30S, Y32G, G33S, G50S, Y54F, Y100G, N101H, N102G, G104N, G105V
VL: B1 VL with F30G, S31Y, W32S, A51P, S52G, S53G, S91Y, W92Y, I96V

Substrate: NP of A/Brisbane/59/2007(H1N1/H1B) (influenza A virus A/Brisbane/59/2007 (H1N1))
Test: ELISA on virus-infected fixed MDCK cells

In order of rising EC50:
1. B5  0.21 nM
2. B4  0.295 nM
3. B7  0.521 nM
4. B6  0.668 nM
5. B3  4.6 nM
6. B2  4.83 nM
7. B8  7 nM
8. B1  7.11 nM

Substrate: NP of B/Brisbane/60/2008(fluB) (influenza B virus B/Brisbane/60/2008)
Test: ELISA on virus-infected fixed MDCK cells

In order of rising EC50:
1. B2  2.17 nM
2. B11  3.17 nM
3. B1  3.92 nM
4. B9  4.88 nM
5. B10  4.89 nM

Substrate: NP of A/Brisbane/59/2007(H1N1/H1B) (influenza A virus A/Brisbane/59/2007 (H1N1))
Test: sandwich ELISA, capture IgG; NP of lysed virus titrated; HRP-NP16 detection

In order of rising EC50:
1. B7  2.36 nM
2. B3  2.71 nM
3. B4  3.37 nM
4. B13  4.02 nM
5. B15  4.08 nM
6. B14  4.13 nM
7. B6  4.61 nM
8. B5  4.74 nM
9. B1  59.4 nM
10. B12  78.3 nM

Substrate: NP of A/Brisbane/59/2007(H1N1/H1B) (influenza A virus A/Brisbane/59/2007 (H1N1))
Test: sandwich ELISA, capture IgG; NP of lysed virus titrated; HRP-NP17 detection

In order of falling EC50:
1. B1  102 nM
2. B8  66.4 nM
3. B14  4.15 nM
4. B15  2.22 nM
5. B13  1.82 nM
6. B7  1.04 nM
7. B6  0.926 nM
8. B5  0.89 nM
9. B4  0.812 nM
10. B3  0.81 nM
